Test results as given in article PMC4001850.
Where “and” joins values, the source holds several entries; their conditions need not be identical. Identical values can stand only once. Like-named read-outs stand apart in the source and are kept apart here.

Columns and labels:
Aβ_(1-40) peptide [1] = test: cross-linking
Aβ_(1-40) peptide [2] = test: cross-linking; remark: listed apart in the source
[3] = molecular target: eAβPP_(19-624), His-Patch thioredoxin fusion of the entire ectodomain of AβPP695 (82-kDa) (human) (UniProt P05067); test: SAXS
Aβ_(1-42) peptide = test: cross-linking

stoichiometry N (Aβ_(1-40) peptide [1]) | stoichiometry N (Aβ_(1-40) peptide [2]) | stoichiometry N (Aβ molecules per eAβPP dimer) [3] | stoichiometry N (Aβ_(1-42) peptide) | Substance
12 and 18 | 2 | 8 |  | Aβ_(1-40) peptide
 |  | 6 | 3 | Aβ_(1-42) peptide
